One block for each molecule: values may come before it.
B1: PCNA from Thermoplasma acidophilum (natural protein, Thermoplasma acidophilum DSM 1728, UniProt Q9HJQ0 1-246, looked up)
chain: MIRLNLSVKNLKEITDLLSTIVSEAKFRVDENGMSVTAVDPAHVAMIRLEVPKEAFVEFHTDGQEEIALDIDRLKSVIRLASSSENVGITKDGEKLKFELGTINKSISLLDPSTIVTPKIPNITSEYYAVLKKSDFERGLRAAEDISDSIRFTLSQDGFKAYSHSESEESEMILPKDLITDMSCNTTIKSSYPLEYLLKFIKAISSTDSLKLSFRDDYPLSVEFYLDQNPGAKIKGLFLLAPRMEQ
B2: Hef from Thermoplasma acidophilum, wild-type (natural protein, Thermoplasma acidophilum DSM 1728, UniProt Q9HI46 1-508, looked up)
chain: MIIQPREYQLNVFKNSIGQNTLIVMPTGLGKTIIAAMFIEKFYGEKKRSLMVAPTKPLVLQHARTIADSTGISENEIGVFTGEIDAEERELIWVTKKIFVSTPQVVFNDMRSGILDITKFDLIIFDEAHRAVGNYAYVDIAQEYLKYKKKLIIGLTASPGSSREKIDEIMANLGISKVIAKTEMDEDVRKYVKTIDVKLIKIREPDGTKEIVNMIDAVMSKLLEPVKSSNFSIGRSRKDLVATMQKVINSAKEDRSLFQLVRRITAAIRLDYLKEYIETQGIDVALHYLEEMEKSQDPGIRRAISMLSSLDEFATLRTKLMLAADGYTNPKMEKTLSIMESNVHGNARAIVFTHYRITSDLLMDYIQKNGTSLKPVRFIGQADRGSDEGLSQDQQKKIIEDFKNNVYNVLIATSIAEEGLDIPDTDFVIFYEAVPSEIRYIQRKGRTGRSRNGQVYILVFENSRDMAYYYSSIRKVSRMTQTIEDLRQESGSDEKEEKSDVQKTIFDF

What was measured:
[1] = target: Flag-FANCM PIP-box mutant (L8R/W12S), full length (human) (UniProt Q8IYD8); assay: proximity ligation
Chain of Flag-FANCM PIP-box mutant (L8R/W12S), full length (human) (Q8IYD8 whole entry L8R/W12S): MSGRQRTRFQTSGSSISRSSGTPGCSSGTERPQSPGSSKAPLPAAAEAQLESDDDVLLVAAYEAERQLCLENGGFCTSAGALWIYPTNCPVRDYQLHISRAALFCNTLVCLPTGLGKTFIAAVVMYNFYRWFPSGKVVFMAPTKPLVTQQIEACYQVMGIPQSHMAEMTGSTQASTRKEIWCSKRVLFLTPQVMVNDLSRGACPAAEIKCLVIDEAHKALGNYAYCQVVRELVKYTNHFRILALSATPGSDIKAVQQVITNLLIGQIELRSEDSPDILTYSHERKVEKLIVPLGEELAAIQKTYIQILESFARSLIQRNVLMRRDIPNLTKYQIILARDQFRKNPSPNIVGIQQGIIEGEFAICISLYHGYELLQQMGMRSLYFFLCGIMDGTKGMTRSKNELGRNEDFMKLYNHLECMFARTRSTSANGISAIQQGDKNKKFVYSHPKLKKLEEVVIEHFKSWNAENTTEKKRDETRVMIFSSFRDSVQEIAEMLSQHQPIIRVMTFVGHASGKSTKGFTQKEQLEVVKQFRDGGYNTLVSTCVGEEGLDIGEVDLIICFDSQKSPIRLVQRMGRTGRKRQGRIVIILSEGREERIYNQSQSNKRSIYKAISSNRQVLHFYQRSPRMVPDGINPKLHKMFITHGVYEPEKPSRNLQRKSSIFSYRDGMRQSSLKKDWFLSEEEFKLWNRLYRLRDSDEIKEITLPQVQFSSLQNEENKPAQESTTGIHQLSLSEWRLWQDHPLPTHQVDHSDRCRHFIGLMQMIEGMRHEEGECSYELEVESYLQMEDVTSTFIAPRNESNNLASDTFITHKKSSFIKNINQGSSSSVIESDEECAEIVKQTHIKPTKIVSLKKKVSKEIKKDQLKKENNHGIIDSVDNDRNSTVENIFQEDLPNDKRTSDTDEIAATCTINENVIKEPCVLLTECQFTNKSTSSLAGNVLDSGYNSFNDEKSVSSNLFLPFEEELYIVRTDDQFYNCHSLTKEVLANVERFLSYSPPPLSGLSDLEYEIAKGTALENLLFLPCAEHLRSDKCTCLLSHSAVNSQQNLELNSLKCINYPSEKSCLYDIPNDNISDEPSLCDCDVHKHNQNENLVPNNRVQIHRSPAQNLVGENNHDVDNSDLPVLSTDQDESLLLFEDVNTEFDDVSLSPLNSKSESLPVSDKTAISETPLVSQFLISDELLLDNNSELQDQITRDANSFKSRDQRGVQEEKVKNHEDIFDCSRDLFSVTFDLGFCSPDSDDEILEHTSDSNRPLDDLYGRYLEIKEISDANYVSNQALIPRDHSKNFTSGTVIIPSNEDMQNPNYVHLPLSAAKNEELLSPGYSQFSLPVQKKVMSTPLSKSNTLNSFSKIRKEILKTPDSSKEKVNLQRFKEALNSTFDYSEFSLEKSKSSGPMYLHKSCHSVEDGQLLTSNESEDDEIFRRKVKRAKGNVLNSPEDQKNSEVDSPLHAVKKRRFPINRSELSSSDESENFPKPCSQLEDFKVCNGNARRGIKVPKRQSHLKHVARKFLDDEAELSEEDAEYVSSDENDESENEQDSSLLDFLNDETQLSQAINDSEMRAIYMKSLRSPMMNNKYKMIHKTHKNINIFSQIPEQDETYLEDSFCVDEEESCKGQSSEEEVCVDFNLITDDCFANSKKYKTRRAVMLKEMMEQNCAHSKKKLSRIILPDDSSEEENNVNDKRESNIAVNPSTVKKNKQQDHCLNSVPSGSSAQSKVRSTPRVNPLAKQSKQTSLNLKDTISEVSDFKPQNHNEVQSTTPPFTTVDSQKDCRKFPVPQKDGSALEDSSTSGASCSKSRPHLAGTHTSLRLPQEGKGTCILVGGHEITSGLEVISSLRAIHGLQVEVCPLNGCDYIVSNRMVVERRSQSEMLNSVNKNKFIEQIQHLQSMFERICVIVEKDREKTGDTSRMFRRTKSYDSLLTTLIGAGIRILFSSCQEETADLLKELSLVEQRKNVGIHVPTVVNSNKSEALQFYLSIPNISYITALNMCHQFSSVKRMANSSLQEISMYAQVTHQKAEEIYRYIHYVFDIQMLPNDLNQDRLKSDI

[2] = target: B2; assay: ITC
SEC = target: the molecule itself; assay: SEC
Human PCNA, recombinant = Human PCNA, recombinant (human, UniProt P12004 1-261); assay: ITC
Chain of Human PCNA, recombinant (P12004 whole entry): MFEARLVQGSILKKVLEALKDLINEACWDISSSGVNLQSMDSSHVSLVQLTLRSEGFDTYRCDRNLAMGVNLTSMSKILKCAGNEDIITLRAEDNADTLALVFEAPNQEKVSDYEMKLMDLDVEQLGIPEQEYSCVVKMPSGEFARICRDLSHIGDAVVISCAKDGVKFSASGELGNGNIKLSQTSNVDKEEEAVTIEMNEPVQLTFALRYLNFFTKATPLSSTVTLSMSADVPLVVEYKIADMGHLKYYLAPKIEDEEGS

[3] = target: B1; assay: SEC
[4] = target: B1; assay: SAXS

Molecule: B1
Kd [2]: 1 µM
stoichiometry N (SEC): 3

Molecule: B2
stoichiometry N [3]: 3 taHef monomers per taPCNA homotrimer
stoichiometry N [4]: 3 taHef per taPCNA trimer

More lines, now with the values ahead:

PLA signal relative to wildtype FANCM (HU-treated cells) [1]: 50%
Molecule: PCNA, endogenous (from UniProt P12004 1-261) (natural protein)

Kd (Human PCNA, recombinant): 13 µM
Molecule: MSGRQRTLFQTWGSSIS (peptide, UniProt Q8IYD8 1-17, looked up) [hsFANCM 1-17 wildtype peptide]

Source: paper PMC4838364 (Nucleic Acids Research, 2016)
